In patent publication US20220112276A1 (Janssen / Centocor, published 2022):
Substitutions are numbered along the chain they refer to.

B1: 01F04R3LS His-tagged VHH (VHH)
VHH: EVQLVESGGGLVQAGGSLRLSCAASGRTFSRYAMGWFRQAPGKEREFVAAIAWSGGAIYYADFVKGQFTISRDNAKNTVDLEMNRLKPEDTAVYYCGSTRDPRVGDKKFYDYWGQGTQVTVSS
B2: 01H10R2 His-tagged VHH (VHH)
VHH: QVQLVESGGGLVQPGGSLRLSCAASGRTSSISTMGWFRQAPGKEREFVTAIRWSGSSSYKYYADSVKGRFTISRDNARNTVYLQMNSLKPEDTAVYYCAAQMSLWRDPREIDYDYWGQGTLVTVSS
B3: 01F12R2 His-tagged VHH (VHH)
VHH: EVQLVESGGGLVQPGGSLRLSCAASGRTFSSYTMGWFRQAPGEEREFVSAISWSSDGTYYKYYTDTVKGRFTISRDNAETTVHLQMNSLKPEDTAVYYCAASSSGTYGDPRSEREYRYWGQGTLVTVSS
B4: 01H08R3 His-tagged VHH (VHH)
VHH: QVQLVESGGGSVQTGGSLRLSCTASGRTFSNYGMGWFRQAPGKEREFVAGITRSGRTTYYYYADAVKGRFTIPRDNADNTIYLQMDSMKPDDTAVYYCAARQGENNYDPRSGSAYNYWGPGTQVTVSS
B5: 01E04R3LS His-tagged VHH (VHH)
VHH: EVQLVESGGGLVQAGDSLRLSCAASGRTFTTYVMGWFRQAPGKDREFVATITWSGSTNYKYYADPVKGRFTISRDNAKNTVYLQMNSLKPEDTAVYYCTSSTVVTDPRKLNEYAYWGQGTLVTVSS
B6: 01G03R3L His-tagged VHH (VHH)
VHH: QVQLVESGGGSVQAGGSLRLSCAASGRTFSNYAMGWFRQAPGKEREFVAGISRSGGSTYSADSVKGRFTISRDNAKNTVYLQMNSLKPEDTAVYYCAADGLDYALGFRGDYWGQGTLVTVSS
B7: 01A09R3L His-tagged VHH (VHH)
VHH: EVQLVESGGGVVQAEDSLRLSCAASGLSFSLSRMGWFRQAPGKEREFVATIEWSGRSTYKYYDDSVKGRFAVSGDNTKNTMNLQMKGLNLEDTGVYYCAANPNNYGDPRTPGAYQYWGQGTQVTVSS
B8: 01G05R2LS His-tagged VHH (VHH)
VHH: QVQLVESGGGLVQAGDSLALSCAGSGDTFSNYAMGWFRQAPGKEREFVADISWYSANIGYADSVKGRFTISRDNAKNMVTLRMNSLKPEDTAVYYCAADRNHWPVKGDYWGQGTQVTVSS
B9: 01F03R2LS His-tagged VHH (VHH)
VHH: EVQLVESGGGLVQAGDSLRLSCAASGRTGSSGAMGWFRQGPGKEREFVAALMWRNTVTYKYYEDSVKGRFTISRDNAKNTAYLQMNSLKPEDTAVYYCAADPDTYGDPRNSGAYDYWGQGTLVTVSS
B10: 01G07R3 His-tagged VHH (VHH)
VHH: QVQLVESGGGLVQAGDSLRLSCAASGRTLSFDTYAMGWFRQAPGKEREFVASIDWSGGTTYYADSVKGRFTVTRDNAKNTVTLRMNSLKPADTAVYYCAAAQYYRSGTSFPANYWGQGTLVTVSS
B11: 01A07R3LS His-tagged VHH (VHH)
VHH: QVQLVESGGGLVQAGDSLRLSCAASGRTFPTYAMGWFRQAPGKEREFVATIRWSGSTQYKYYADFVKGRFTISRDNAKNTVYLQMDSLKPEDTAVYYCAATTLLGDPRALNEYAYWGQGTQVTVSS
B12: 01G09R3LS His-tagged VHH (VHH)
VHH: B11 VHH with Q1E, G105T, E112A
B13: 01H10R3 His-tagged VHH (VHH)
VHH: QVQLVESGGGLVQAGGSLRLSCAASGRAFSQYTMGWFRQAPGKEREFVTAIRWSGGSIYKYYADSVKGRFTISGDNARNTVDLQMNSLKPEDTAVYYCAARMSPWGDPRGNEYDYWGQGTLVTVSS
B14: 01E10R3 His-tagged VHH (VHH)
VHH: QVQLVESGGGLVQSGGSLRLSCAASGRTFSDYAMGWFRQAPGKERELVAAITWNGGSTYYADSVKGRFTISRDNAKNTVDLQMNSLKPEDTAVYYCAADPLNSDSAGTYDYWGQGTLVTVSS
B15: 01E05R2 His-tagged VHH (VHH)
VHH: QVQLVESGGGLVQAGGSLRLSCAASGRAFSSGRMGWFRQAPGKEREFVAAISWSGHTTYKYYADSVKGRFTISRENAKNTVSLQMNSLKPEDTAVYYCAARQSLVAGGDPRGQSEYDYWGQGTLVTVSS
B16: 01F09R3 His-tagged VHH (VHH)
VHH: QVQLVESGGGLAQAGGSLTLSCAASGTAAGIDVMGWYRQTPGNSREFVARIFSNDVTHYADSVTGRFTLSRTQDKNTVSLQMNSLKPDDTGVYYCNARIWTGSTTVDYWGQGTQVTVSS
B17: 01F04R2LS His-tagged VHH (VHH)
VHH: EVQLVESGGGLVQTGGSLRLSCAASGRTFSSYAMGWFRQAPGKEPERDFVAALRWSNDRTYYKYYADSVKGRFTISRDNAKNTVYLQMNTLKPEDTAVYYCAGGNYFSDPRVDKEYNYWGQGTQVTVSS
B18: 01F05R2LS His-tagged VHH (VHH)
VHH: QVQLVESGGGLVQAGGSLRLSCAASGSIFAINGMGWYRQAPGKQRELVAVITRGGSTNYADSVKGRFTISRDNAKNTVSLQMNSLKPEDTAVYYCAATGVLAGWAAGDGMDYWGKGTLVTVSS
B19: 01H02R3LS His-tagged VHH (VHH)
VHH: QVQLVESGGGLVQPGGSLRLSCAASGSIFSASVMGWYRQGPGKQREFVARISPGGVTHYADSVKGRFTISKDNAKNTVTLQMNSLKPEDTAVYYCNADRFGFEVYWGQGTLVTVSS
B20: 02C10R3 His-tagged VHH (VHH)
VHH: EVQLVESGGGLVQPGGSLRLSCAASGFTFSSFTMTWFRQAPGKGLGWVSRISSDGTGTNYADSVKGRFTISRDNAKNTLYLRMNSLKPEDTAVYYCAIADDSSTRGQGTLVTVSS
B21: 02B12R3 His-tagged VHH (VHH)
VHH: QVQLVESGGGWVQTGGSLRLSCAASGRTVSSYYMGWFRQTPGKEREFVAAISWVGSSTYKYYTDSAKGRFTISRDNAKNTVYLQMNSLKPEDTAVYYCAARPRVGDPRSRYDDDNWGQGTQVTVSS
B22: 01A07R3 His-tagged VHH (VHH)
VHH: EVQLVESGGGLVQTGESLRLSCAASGRAFSDLRMAWFRQVPGKEREFVAAVEWRGSSRYYYSADSVKGRFTISRTSPKGETYLQMNGLKPEDTAVYYCAAVSPVVGDPRNSDTYNYWGQGTQVTVSS

Target: T1, recombinant human pIgR (hpIgR) (human, UniProt P01833 19-638, limits assumed)
T1 construct: probably the ECD
T1 sequence (P01833 19-638 limits assumed): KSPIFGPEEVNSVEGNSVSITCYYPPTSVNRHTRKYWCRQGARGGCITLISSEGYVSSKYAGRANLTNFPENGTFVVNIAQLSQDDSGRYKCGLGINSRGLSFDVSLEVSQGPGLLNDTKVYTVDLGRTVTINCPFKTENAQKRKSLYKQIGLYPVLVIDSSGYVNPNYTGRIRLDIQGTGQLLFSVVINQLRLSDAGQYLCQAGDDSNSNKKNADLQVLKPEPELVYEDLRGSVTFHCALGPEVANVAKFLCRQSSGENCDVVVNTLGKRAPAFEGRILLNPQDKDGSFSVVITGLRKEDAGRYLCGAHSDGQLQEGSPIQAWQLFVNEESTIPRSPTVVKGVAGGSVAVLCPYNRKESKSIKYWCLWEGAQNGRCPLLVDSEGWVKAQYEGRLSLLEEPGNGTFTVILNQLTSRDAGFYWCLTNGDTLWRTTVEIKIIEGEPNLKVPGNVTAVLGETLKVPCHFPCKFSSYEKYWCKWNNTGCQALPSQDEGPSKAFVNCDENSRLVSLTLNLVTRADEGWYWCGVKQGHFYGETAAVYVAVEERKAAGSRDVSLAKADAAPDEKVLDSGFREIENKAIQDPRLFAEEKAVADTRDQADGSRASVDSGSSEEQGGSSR
Assay: ELISA, periplasmic VHH, BSA subtracted
In short: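 His-tagged VHH in periplasmic extracts (osmotic shock, non-suppressor E. coli) were tested by ELISA for binding to pIgR. Bound nanobody was detected with polyclonal anti-alpaca VHH antibody in the initial screen and anti-VHH antibody on retest. Signal on BSA, run in parallel, was subtracted from the pIgR signal.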

| Binder | ELISA (OD) |
| --- | --- |
| B1 | 1.98 OD |
| B2 | 1.83 OD |
| B3 | 2.12 OD |
| B4 | 1.11 OD |
| B5 | 2.13 OD |
| B6 | 0.74 OD |
| B7 | 1.98 OD |
| B8 | 2.15 OD |
| B9 | 2.14 OD |
| B10 | 2.19 OD |
| B11 | 0.48 OD |
| B12 | 1.9 OD |
| B13 | 1.54 OD |
| B14 | 1.96 OD |
| B15 | 2.1 OD |
| B16 | 1.85 OD |
| B17 | 2.09 OD |
| B18 | 2.4 OD |
| B19 | 1.97 OD |
| B20 | 2.05 OD |
| B21 | 2.38 OD |
| B22 | 1.68 OD |
